Experiments:
[1] = target: the molecule itself; test: crystal structure; uncleaved PaPepA, sitting drop, 20 °C, PEG 3350 and ammonium nitrate; three crystal forms: apo, with MnCl2, with bestatin and MnCl2
[2] = target: the molecule itself; test: dynamic light scattering; PaPepA in solution; conditions not shown (Figure S14)

Protein | stoichiometry N [1] | stoichiometry N [2]
PepA from P. aeruginosa strain PA14 (PaPepA), uncleaved His6-tagged protein used for crystallography (enzyme, Pseudomonas aeruginosa strain PA14, Leucine aminopeptidase PepA, Pseudomonas aeruginosa strain PA14, PA14_14470, UniProt Q02RY8; also called leucine aminopeptidase from Pseudomonas aeruginosa; uncleaved PaPepA; source: E. coli BL21(DE3), purified (HisTrap FF nickel column, dialysed; not TEV-cleaved); not shown: His6 (followed by a linker and a TEV protease cleavage site), N-terminal, kept) MEFLVKSVRPETLKTATLVLAVGEGRKLGASAKAVDDATGGAISAVLKRGDLAGKVGQTLLLQSLPNLKAERVLLVGAGKERELGDRQYRKLASAVLSTLKGLAGADAALALGDLAVKGRGAHAKARLLVETLADGLYVFDRYKSQKAEPLKLKKLTLLADKADSAAVEQGSKEAQAIANGMALTRDLGNLPPNVCHPTFLGEQAKGLAKEFKSLKVEVLDEKKLRELGMGSFLAVAQGSDQPPRLIILQYNGAKKDQAPHVLVGKGITFDTGGISLKPGLGMDEMKFDMCGAASVFGTFRAVLELQLPINLVGLLACAENMPSGGATRPGDIVTTMSGQTVEILNTDAEGRLVLCDALTYAERFKPQSVIDIATLTGACIVALGSNTSGLMGNNEALVRQLLKAGEFADDRAWQLPLFDEYQEQLDSPFADIANIGGPKAGTITAGCFLSRFAKKYHWAHLDIAGTAWISGGKDKGATGRPVPLLTQYLLERAK | 6 | –
PepA from P. aeruginosa strain PA14 (PaPepA), protein used for dynamic light scattering (enzyme, Pseudomonas aeruginosa strain PA14, Leucine aminopeptidase PepA, Pseudomonas aeruginosa strain PA14, PA14_14470, UniProt Q02RY8; probably the cleaved one; also called leucine aminopeptidase from Pseudomonas aeruginosa; source: E. coli BL21(DE3), purified (HisTrap FF nickel column)) MEFLVKSVRPETLKTATLVLAVGEGRKLGASAKAVDDATGGAISAVLKRGDLAGKVGQTLLLQSLPNLKAERVLLVGAGKERELGDRQYRKLASAVLSTLKGLAGADAALALGDLAVKGRGAHAKARLLVETLADGLYVFDRYKSQKAEPLKLKKLTLLADKADSAAVEQGSKEAQAIANGMALTRDLGNLPPNVCHPTFLGEQAKGLAKEFKSLKVEVLDEKKLRELGMGSFLAVAQGSDQPPRLIILQYNGAKKDQAPHVLVGKGITFDTGGISLKPGLGMDEMKFDMCGAASVFGTFRAVLELQLPINLVGLLACAENMPSGGATRPGDIVTTMSGQTVEILNTDAEGRLVLCDALTYAERFKPQSVIDIATLTGACIVALGSNTSGLMGNNEALVRQLLKAGEFADDRAWQLPLFDEYQEQLDSPFADIANIGGPKAGTITAGCFLSRFAKKYHWAHLDIAGTAWISGGKDKGATGRPVPLLTQYLLERAK | – | 6
